One assay addresses GST-RanBP3 (human). The assay can be described thus: pull-down.
For assay [1], the target named is Crm1-His6 (human) (UniProt O14980). The assay can be described thus: ELISA.
Assay [2] has the same target. The assay can be described thus: ELISA. This is another data set of the same source.

Where two headings read alike, the source gives them in different places.

For “Crm1-His6 (from UniProt O14980 1-1071) (receptor)”, in the assay with GST-RanBP3 (human), the ratio bound/total at 1 min, with RanBP1 was found to be 0.52; the ratio bound/total at 1 min, without RanBP1 came to 0.59; the ratio bound/total at 10 min, with RanBP1 was found to be 0.39.
A word on the Kd: it is the equilibrium constant for the complex coming apart. Read a high Kd as a looser complex. For the substance GST-RanBP3 (natural protein), the figures for the Kd with Crm1-His6 (human) [1] and with Crm1-His6 (human) [2] were 0.064 µM and 0.106 µM, respectively.

For the origin of these results see article PMC2150735.
